# pKd: −log10 of the molar value.
# Molecular target: G9a or GLP catalytic SET domains
# Assay: ITC
substance,measurement,value
mDnmt3a(39–50)K44me0 peptide,pKd,5.22 to 5.40
